Data taken from US20220218785A1 (ALPINE IMMUNE SCIENCES, published 2022).
Substitutions are numbered along the chain they refer to. In names and notes the source's numbering stands.

T1: human ICOS (human, UniProt Q9Y6W8 21-199)
T1 construct: whole, on cells
T1 sequence (looked up): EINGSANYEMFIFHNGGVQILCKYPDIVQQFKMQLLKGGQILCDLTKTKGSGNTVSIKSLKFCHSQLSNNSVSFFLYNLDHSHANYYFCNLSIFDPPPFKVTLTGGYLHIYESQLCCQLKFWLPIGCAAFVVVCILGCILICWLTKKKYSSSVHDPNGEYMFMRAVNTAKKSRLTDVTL

B1: ICOSL ECD Truncation #7 with N52H/N57Y/Q100R/F172S, Fc fusion (Fc fusion)
chain: DTQEKEVRAMVGSDVELSCACPEGSRFDLNDVYVYWQTSESKTVVTYHIPQHSSLEYVDSRYRNRALMSPAGMLRGDFSLRLFNVTPQDEQKFHCLVLSRSLGFQEVLSVEVTLHVAANFSVPVVSAPHSPSQDELTFTCTSINGYPRPNVYWINKTDNSLLDQALQNDTVSLNMRGLYDVVSVLRIARTPSVNIGCCIENGGGGSGGGGSEPKSSDKTHTCPPCPAPEAEGAPSVFLFPPKPKDTLMISRTPEVTCVVVDVSHEDPEVKFNWYVDGVEVHNAKTKPREEQYNSTYRVVSVLTVLHQDWLNGKEYKCKVSNKALPAPIEKTISKAKGQPREPQVYTLPPSREEMTKNQVSLTCLVKGFYPSDIAVEWESNGQPENNYKTTPPVLDSDGSFFLYSKLTVDKSRWQQGNVFSCSVMHEALHNHYTQKSLSLSPG
B2: variant ICOSL ECD-Fc N52H/N57Y/Q100P, AAA linker, Fc C220S/L234A/L235E/G237A (SEQ ID NO: 40) (Fc fusion)
chain: DTQEKEVRAMVGSDVELSCACPEGSRFDLNDVYVYWQTSESKTVVTYHIPQHSSLEYVDSRYRNRALMSPAGMLRGDFSLRLFNVTPQDEQKFHCLVLSPSLGFQEVLSVEVTLHVAANFSVPVVSAPHSPSQDELTFTCTSINGYPRPNVYWINKTDNSLLDQALQNDTVFLNMRGLYDVVSVLRIARTPSVNIGCCIENVLLQQNLTVGSQTGNDIGERDKITENPVSTGEKNAATAAAEPKSSDKTHTCPPCPAPEAEGAPSVFLFPPKPKDTLMISRTPEVTCVVVDVSHEDPEVKFNWYVDGVEVHNAKTKPREEQYNSTYRVVSVLTVLHQDWLNGKEYKCKVSNKALPAPIEKTISKAKGQPREPQVYTLPPSREEMTKNQVSLTCLVKGFYPSDIAVEWESNGQPENNYKTTPPVLDSDGSFFLYSKLTVDKSRWQQGNVFSCSVMHEALHNHYTQKSLSLSPGK
notes: Made in 293 cells; Fc or allotypes thereof
B3: variant ICOSL ECD-Fc N52H/N57Y/Q100R/F172S, AAA linker, Fc C220S/L234A/L235E/G237A (SEQ ID NO: 40) (Fc fusion)
chain: B2 chain with P100R, F172S
notes: as for B2
B4: variant ICOSL ECD-Fc N52H/N57Y/Q100R/F172S, G4S linker, Fc C220S/L234A/L235E/G237A (SEQ ID NO: 40) (Fc fusion)
chain: DTQEKEVRAMVGSDVELSCACPEGSRFDLNDVYVYWQTSESKTVVTYHIPQHSSLEYVDSRYRNRALMSPAGMLRGDFSLRLFNVTPQDEQKFHCLVLSRSLGFQEVLSVEVTLHVAANFSVPVVSAPHSPSQDELTFTCTSINGYPRPNVYWINKTDNSLLDQALQNDTVSLNMRGLYDVVSVLRIARTPSVNIGCCIENVLLQQNLTVGSQTGNDIGERDKITENPVSTGEKNAATGGGGSEPKSSDKTHTCPPCPAPEAEGAPSVFLFPPKPKDTLMISRTPEVTCVVVDVSHEDPEVKFNWYVDGVEVHNAKTKPREEQYNSTYRVVSVLTVLHQDWLNGKEYKCKVSNKALPAPIEKTISKAKGQPREPQVYTLPPSREEMTKNQVSLTCLVKGFYPSDIAVEWESNGQPENNYKTTPPVLDSDGSFFLYSKLTVDKSRWQQGNVFSCSVMHEALHNHYTQKSLSLSPGK
notes: as for B2
B5: variant ICOSL ECD-Fc N52H/N57Y/Q100P, G4S linker, Fc C220S/L234A/L235E/G237A (SEQ ID NO: 40) (Fc fusion)
chain: B4 chain with R100P, S172F
notes: as for B2
B6: ICOSL IgV with N52H/N57Y/Q100R, Fc fusion with (G4S)2 linker (Fc fusion)
chain: DTQEKEVRAMVGSDVELSCACPEGSRFDLNDVYVYWQTSESKTVVTYHIPQHSSLEYVDSRYRNRALMSPAGMLRGDFSLRLFNVTPQDEQKFHCLVLSRSLGFQEVLSVEVTLHVAANFSVGGGGSGGGGSEPKSSDKTHTCPPCPAPEAEGAPSVFLFPPKPKDTLMISRTPEVTCVVVDVSHEDPEVKFNWYVDGVEVHNAKTKPREEQYNSTYRVVSVLTVLHQDWLNGKEYKCKVSNKALPAPIEKTISKAKGQPREPQVYTLPPSREEMTKNQVSLTCLVKGFYPSDIAVEWESNGQPENNYKTTPPVLDSDGSFFLYSKLTVDKSRWQQGNVFSCSVMHEALHNHYTQKSLSLSPG
notes: also called ICOSCL IgV with N52H/N57Y/Q100R

What was measured:
human CD28 [1] = target: T2, human CD28 (human, UniProt P10747 19-220); assay: flow cytometry, cells with human CD28; protein from 293
T2 construct: whole, on cells

human CD28 [2] = target: T2, human CD28; assay: flow cytometry, cells with human CD28; protein from CHO
human CTLA-4 [3] = target: T3, human CTLA-4 (human, UniProt P16410 36-223); assay: flow cytometry, cells with human CTLA-4; protein from 293
T3 construct: whole, on cells
T3 sequence (P16410 36-223): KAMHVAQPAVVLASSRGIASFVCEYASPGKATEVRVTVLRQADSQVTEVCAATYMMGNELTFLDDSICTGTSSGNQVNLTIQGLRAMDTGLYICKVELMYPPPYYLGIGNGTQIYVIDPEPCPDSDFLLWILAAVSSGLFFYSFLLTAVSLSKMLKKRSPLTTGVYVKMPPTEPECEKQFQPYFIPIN

human ICOS [4] = target: T1, human ICOS; assay: flow cytometry, cells with human ICOS; protein from 293
human ICOS [5] = target: T1, human ICOS; assay: flow cytometry, cells with human ICOS; protein from CHO
human CTLA-4 [6] = target: T3, human CTLA-4; assay: flow cytometry, cells with human CTLA-4; protein from CHO
human CTLA-4 [7] = target: T3, human CTLA-4; assay: flow cytometry, Expi293 cells with human CTLA-4
From the text: (§1) Expi293 cells transfected with cognate binding partners, human CD28, ICOS and CTLA4, were used as target cells in binding studies.

human CD28 [8] = target: T2, human CD28; assay: flow cytometry, Expi293 cells with human CD28
From the text: as §1

human ICOS [9] = target: T1, human ICOS; assay: flow cytometry, Expi293 cells with human ICOS
Description: Binding studies were carried out on transfected HEK293 cells generated to express the full-length mammalian (human) surface ligands, CD28, ICOS or CTLA-4, using a transient transfection system (Life Technologies, USA). As a control, binding to mock (non-transfected) cells also was assessed. For staining by flow cytometry, 200,000 cells of appropriate transient transfection or negative control (mock) were plated in 96 well round bottom plates, and, then incubated in staining buffer (PBS, phosphate buffered saline; 1% BSA, bovine serum albumin; and 0.1% sodium azide) for 20 minutes to block non-specific binding. Cells were resuspended in staining buffer containing 100 nM to 1 nM variant immunomodulatory protein in 50 μL. Mean Fluorescence Intensity (MFI) was calculated for each transfectant and negative parental line with Cell Quest Pro software (Becton Dickinson, USA) or a Hypercyt flow cytometer (Intellicyte, USA).
as §1

human ICOS [10] = target: T1, human ICOS; assay: flow cytometry, cells with human ICOS; protein from CHO; remark: listed apart in the source
human CD28 [11] = target: T2, human CD28; assay: flow cytometry, cells with human CD28; protein from CHO; remark: listed apart in the source
human CTLA-4 [12] = target: T3, human CTLA-4; assay: flow cytometry, cells with human CTLA-4; protein from CHO; remark: listed apart in the source

Binder | MFI (ΔWT) (human CD28 [1]) [fold vs WT] | MFI (ΔWT) (human CD28 [2]) [fold vs WT] | MFI (ΔWT) (human CTLA-4 [3]) [fold vs WT] | MFI (ΔWT) (human ICOS [4]) [fold vs WT] | MFI (ΔWT) (human ICOS [5]) [fold vs WT] | MFI (ΔWT) (human CTLA-4 [6]) [fold vs WT] | MFI (ΔWT) (human CTLA-4 [7]) [fold vs WT] | MFI (ΔWT) (human CD28 [8]) [fold vs WT] | MFI (ΔWT) (human ICOS [9]) [fold vs WT] | MFI (ΔWT) (human ICOS [10]) [fold vs WT] | MFI (ΔWT) (human CD28 [11]) [fold vs WT] | MFI (ΔWT) (human CTLA-4 [12]) [fold vs WT]
B1 | 3.4 | 3.7 | 0.8 | 0.7 | 0.7 | 0.7 | – | – | – | – | – | –
B2 | – | – | – | – | – | – | 18.2 | 13.1 | 1.2 | – | – | –
B3 | – | – | – | – | – | – | 20.6 | 12.5 | 1.3 | – | – | –
B4 | – | – | – | – | – | – | 22.7 | 12.9 | 1.4 | – | – | –
B5 | – | – | – | – | – | – | 17.1 | 13.4 | 1.3 | – | – | –
B6 | 4.7 | 4.9 | 0.8 | 0.8 | 0.7 | 0.7 | – | – | – | 1.2 | 49 | 27
